# From the supplement of paper PMC5998384
# Legend:
# [1] = system: HeLa Kyoto; assay: solubility in G1/S (NP-40 vs SDS abundance) (log2 ratio); higher = more soluble; settings: cell cycle stage: G1/S
# [2] = system: HeLa Kyoto; assay: melting temperature (median over replicates), in situ; higher = more thermally stable
# [3] = system: HeLa Kyoto; assay: solubility change mitosis vs G1/S (difference of NP-40 vs SDS log2 ratios) (log2 ratio difference); higher = more soluble in mitosis
# [4] = system: HeLa Kyoto; assay: thermal stability score vs G1/S (z-score of summed log2 fold changes over temperatures); higher = more thermally stable than in G1/S
# [5] = cell cycle stage: early G1 (4.5 h after nocodazole release)
# 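Throughout, for melting temperature (median over replicates), in situ: HeLa Kyoto cells synchronized by double thymidine or nocodazole block, proteins quantified by TMT10plex mass spectrometry, three independent biological replicates.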
# 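Throughout, for solubility change mitosis vs G1/S (difference of NP-40 vs SDS log2 ratios): synchronized HeLa Kyoto cells (double thymidine block for G1/S, nocodazole release for mitosis), protein amounts in NP-40 versus SDS lysates quantified by mass spectrometry, three biological replicates.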
# 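Throughout, for solubility in G1/S (NP-40 vs SDS abundance): HeLa Kyoto cells arrested at G1/S by double thymidine block, proteins quantified by TMT10plex mass spectrometry in mild NP-40 versus SDS extracts, three biological replicates.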
# 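Throughout, for thermal stability score vs G1/S (z-score of summed log2 fold changes over temperatures): synchronized HeLa Kyoto cells, proteins quantified by TMT10plex mass spectrometry, three biological replicates, mitosis taken 0.5 h after nocodazole release, G1/S directly after double thymidine block.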
# Chain of NEK7 (chain, as listed by the source): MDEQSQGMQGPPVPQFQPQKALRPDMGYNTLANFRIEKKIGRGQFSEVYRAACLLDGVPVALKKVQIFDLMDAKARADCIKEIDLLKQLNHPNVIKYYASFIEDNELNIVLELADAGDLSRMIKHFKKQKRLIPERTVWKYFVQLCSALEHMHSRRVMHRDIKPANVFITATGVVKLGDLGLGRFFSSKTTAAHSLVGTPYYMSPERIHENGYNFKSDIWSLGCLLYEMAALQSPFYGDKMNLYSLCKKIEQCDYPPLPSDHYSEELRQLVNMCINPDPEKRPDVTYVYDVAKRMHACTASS
# Chain of TXNDC12 (chain, as listed by the source): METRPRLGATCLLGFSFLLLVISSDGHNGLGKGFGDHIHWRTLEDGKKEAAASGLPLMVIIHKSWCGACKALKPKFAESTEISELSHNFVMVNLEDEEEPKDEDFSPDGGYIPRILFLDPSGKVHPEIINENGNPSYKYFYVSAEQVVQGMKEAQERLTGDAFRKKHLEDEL
Substance,solubility in G1/S (log2) [1],melting temperature ([2]; cell cycle stage: G1/S) [°C],melting temperature ([2]; cell cycle stage: mitosis) [°C],solubility change mitosis (log2) [3],"thermal stability score [4, 5]",thermal stability score ([4]; cell cycle stage: mitosis)
MEMFTFLLTCIFLPLLRGHSLFTCEPITVPRCMKMAYNMTFFPNLMGHYDQSIAAVEMEHFLPLANLECSPNIETFLCKAFVPTCIEQIHVVPPCRKLCEKVYSDCKKLIDTFGIRWPEELECDRLQYCDETVPVTFDPHTEFLGPQKKTEQVQRDIGFWCPRHLKTSGGQGYKFLGIDQCAPPCPNMYFKSDELEFAKSFIGTVSIFCLCATLFTFLTFLIDVRRFRYPERPIIYYSVCYSIVSLMYFIGFLLGDSTACNKADEKLELGDTVVLGSQNKACTVLFMLLYFFTMAGTVWWVILTITWFLAAGRKWSCEAIEQKAVWFHAVAWGTPGFLTVMLLAMNKVEGDNISGVCFVGLYDLDASRYFVLLPLCLCVFVGLSLLLAGIISLNHVRQVIQHDGRNQEKLKKFMIRIGVFSGLYLVPLVTLLGCYVYEQVNRITWEITWVSDHCRQYHIPCPYQAKAKARPELALFMIKYLMTLIVGISAVFWVGSKKTCTEWAGFFKRNRKRDPISESRRVLQESCEFFLKHNSKVKHKKKHYKPSSHKLKVISKSMGTSTGATANHGTSAVAITSHDYLGQETLTEIQTSPETSMREVKADGASTPRLREQDCGEPASPAASISRLSGEQVDGKGQAGSVSESARSEGRISPKSDITDTGLAQSNNLQVPSSSEPSSLKGSTSLLVHPVSGVRKEQGGGCHSDT [FZD6],-0.0341,54.7,55.6,0.0773,-1.37,-2.82
MARCERLRGAALRDVLGRAQGVLFDCDGVLWNGERAVPGAPELLERLARAGKAALFVSNNSRRARPELALRFARLGFGGLRAEQLFSSALCAARLLRQRLPGPPDAPGAVFVLGGEGLRAELRAAGLRLAGDPSAGDGAAPRVRAVLVGYDEHFSFAKLREACAHLRDPECLLVATDRDPWHPLSDGSRTPGTGSLAAAVETASGRQALVVGKPSPYMFECITENFSIDPARTLMVGDRLETDILFGHRCGMTTVLTLTGVSRLEEAQAYLAAGQHDLVPHYYVESIADLTEGLED [PDXP],0.126,56.7,57.5,-0.126,-2.14,-1.83
MALLHSGRVLPGIAAAFHPGLAAAASARASSWWTHVEMGPPDPILGVTEAFKRDTNSKKMNLGVGAYRDDNGKPYVLPSVRKAEAQIAAKNLDKEYLPIGGLAEFCKASAELALGENSEVLKSGRFVTVQTISGTGALRIGASFLQRFFKFSRDVFLPKPTWGNHTPIFRDAGMQLQGYRYYDPKTCGFDFTGAVEDISKIPEQSVLLLHACAHNPTGVDPRPEQWKEIATVVKKRNLFAFFDMAYQGFASGDGDKDAWAVRHFIEQGINVCLCQSYAKNMGLYGERVGAFTMVCKDADEAKRVESQLKILIRPMYSNPPLNGARIAAAILNTPDLRKQWLQEVKVMADRIIGMRTQLVSNLKKEGSTHNWQHITDQIGMFCFTGLKPEQVERLIKEFSIYMTKDGRISVAGVTSSNVGYLAHAIHQVTK [GOT2],0.165,59.4,58.8,-0.0966,-1.18,-2.25
MAGAGPAPGLPGAGGPVVPGPGAGIPGKSGEERLKEMEAEMALFEQEVLGAPVPGIPTAVPAVPTVPTVPTVEAMQVPAAPVIRPIIATNTYQQVQQTLEARAAAAATVVPPMVGGPPFVGPVGFGPGDRSHLDSPEAREAMFLRRAAVAPQRAPILRPAFVPHVLQRADSALSSAAAGPRPMALRPPHQALVGPPLPGPPGPPMMLPPMARAPGPPLGSMAALRPPLEEPAAPRELGLGLGLGLKEKEEAVVAAAAGLEEASAAVAVGAGGAPAGPAVIGPSLPLALAMPLPEPEPLPLPLEVVRGLLPPLRIPELLSLRPRPRPPRPEPPPGLMALEVPEPLGEDKKKGKPEKLKRCIRTAAGSSWEDPSLLEWDADDFRIFCGDLGNEVNDDILARAFSRFPSFLKAKVIRDKRTGKTKGYGFVSFKDPSDYVRAMREMNGKYVGSRPIKLRKSMWKDRNLDVVRKKQKEKKKLGLR [RBM42],0.0912,51.6,50.1,0.019,-2.37,-2.6
TXNDC12,0.365,53.5,54.2,0.232,-0.513,-0.814
MFLYNLTLQRATGISFAIHGNFSGTKQQEIVVSRGKILELLRPDPNTGKVHTLLTVEVFGVIRSLMAFRLTGGTKDYIVVGSDSGRIVILEYQPSKNMFEKIHQETFGKSGCRRIVPGQFLAVDPKGRAVMISAIEKQKLVYILNRDAAARLTISSPLEAHKANTLVYHVVGVDVGFENPMFACLEMDYEEADNDPTGEAAANTQQTLTFYELDLGLNHVVRKYSEPLEEHGNFLITVPGGSDGPSGVLICSENYITYKNFGDQPDIRCPIPRRRNDLDDPERGMIFVCSATHKTKSMFFFLAQTEQGDIFKITLETDEDMVTEIRLKYFDTVPVAAAMCVLKTGFLFVASEFGNHYLYQIAHLGDDDEEPEFSSAMPLEEGDTFFFQPRPLKNLVLVDELDSLSPILFCQIADLANEDTPQLYVACGRGPRSSLRVLRHGLEVSEMAVSELPGNPNAVWTVRRHIEDEFDAYIIVSFVNATLVLSIGETVEEVTDSGFLGTTPTLSCSLLGDDALVQVYPDGIRHIRADKRVNEWKTPGKKTIVKCAVNQRQVVIALTGGELVYFEMDPSGQLNEYTERKEMSADVVCMSLANVPPGEQRSRFLAVGLVDNTVRIISLDPSDCLQPLSMQALPAQPESLCIVEMGGTEKQDELGERGSIGFLYLNIGLQNGVLLRTVLDPVTGDLSDTRTRYLGSRPVKLFRVRMQGQEAVLAMSSRSWLSYSYQSRFHLTPLSYETLEFASGFASEQCPEGIVAISTNTLRILALEKLGAVFNQVAFPLQYTPRKFVIHPESNNLIIIETDHNAYTEATKAQRKQQMAEEMVEAAGEDERELAAEMAAAFLNENLPESIFGAPKAGNGQWASVIRVMNPIQGNTLDLVQLEQNEAAFSVAVCRFSNTGEDWYVLVGVAKDLILNPRSVAGGFVYTYKLVNNGEKLEFLHKTPVEEVPAAIAPFQGRVLIGVGKLLRVYDLGKKKLLRKCENKHIANYISGIQTIGHRVIVSDVQESFIWVRYKRNENQLIIFADDTYPRWVTTASLLDYDTVAGADKFGNICVVRLPPNTNDEVDEDPTGNKALWDRGLLNGASQKAEVIMNYHVGETVLSLQKTTLIPGGSESLVYTTLSGGIGILVPFTSHEDHDFFQHVEMHLRSEHPPLCGRDHLSFRSYYFPVKNVIDGDLCEQFNSMEPNKQKNVSEELDRTPPEVSKKLEDIRTRYAF [SF3B3],-0.389,52.4,51.6,0.0933,-1,-1.81
MASLLAKDAYLQSLAKKICSHSAPEQQARTRAGKTQGSETAGPPKKKRKKTQKKFRKREEKAAEHKAKSLGEKSPAASGARRPEAAKEEAAWASSSAGNPADGLATEPESVFALDVLRQRLHEKIQEARGQGSAKELSPAALEKRRRRKQERDRKKRKRKELRAKEKARKAEEATEAQEVVEATPEGACTEPREPPGLIFNKVEVSEDEPASKAQRRKEKRQRVKGNLTPLTGRNYRQLLERLQARQSRLDELRGQDEGKAQELEAKMKWTNLLYKAEGVKIRDDERLLQEALKRKEKRRAQRQRRWEKRTAGVVEKMQQRQDRRRQNLRRKKAARAERRLLRARKKGRILPQDLERAGLV [SURF6],-1.46,56.5,54.5,1.25,-2.48,-6.87
NEK7,0.62,49.1,49.4,-0.165,1.38,1.14
MMLSTEGREGFVVKVRGLPWSCSADEVMRFFSDCKIQNGTSGIRFIYTREGRPSGEAFVELESEEEVKLALKKDRETMGHRYVEVFKSNSVEMDWVLKHTGPNSPDTANDGFVRLRGLPFGCSKEEIVQFFSGLEIVPNGMTLPVDFQGRSTGEAFVQFASQEIAEKALKKHKERIGHRYIEIFKSSRAEVRTHYDPPRKLMAMQRPGPYDRPGAGRGYNSIGRGAGFERMRRGAYGGGYGGYDDYGGYNDGYGFGSDRFGRDLNYCFSGMSDHRYGDGGSSFQSTTGHCVHMRGLPYRATENDIYNFFSPLNPMRVHIEIGPDGRVTGEADVEFATHEDAVAAMAKDKANMQHRYVELFLNSTAGTSGGAYDHSYVELFLNSTAGASGGAYGSQMMGGMGLSNQSSYGGPASQQLSGGYGGGYGGQSSMSGYDQVLQENSSDYQSNLA [HNRNPH2],-0.272,45,45.2,-0.0078,1.83,2.38
